The target in assay [1] is human C1q (human) (UniProt P02745). In words: cell-based or functional assay.
Assay [2] shares this target. The experiment in a line: solid phase C1q binding ELISA, antibody coated in a titration, C1q added.
For another assay, the target named is FcγR1 (human) (UniProt P12314). The experiment in a line: solid phase binding assay (Meso Scale), receptor coated, antibody titrated.
For another assay, the target named is FcγR2a(H) (human) (UniProt P12318). The assay is described as above.
FcγR2a(H) (human), sequence (P12318 36-218): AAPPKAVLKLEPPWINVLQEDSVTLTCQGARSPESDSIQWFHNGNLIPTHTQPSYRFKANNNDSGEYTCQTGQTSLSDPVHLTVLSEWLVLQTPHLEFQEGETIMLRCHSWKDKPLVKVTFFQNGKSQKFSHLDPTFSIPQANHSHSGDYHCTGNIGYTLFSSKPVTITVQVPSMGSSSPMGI
For a further assay, the target named is FcγR3a (V) (human) (UniProt P08637). The description is as above.
FcγR3a (V) (human), sequence (P08637 17-208 F176V): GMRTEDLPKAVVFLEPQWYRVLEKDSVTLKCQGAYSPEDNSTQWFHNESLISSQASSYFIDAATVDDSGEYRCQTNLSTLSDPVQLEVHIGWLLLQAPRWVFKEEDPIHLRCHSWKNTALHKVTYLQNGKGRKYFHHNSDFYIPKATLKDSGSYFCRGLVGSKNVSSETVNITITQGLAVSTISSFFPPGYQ

human C1q (human), sequence (P02745 23-245 limits assumed, chain 1 of 3): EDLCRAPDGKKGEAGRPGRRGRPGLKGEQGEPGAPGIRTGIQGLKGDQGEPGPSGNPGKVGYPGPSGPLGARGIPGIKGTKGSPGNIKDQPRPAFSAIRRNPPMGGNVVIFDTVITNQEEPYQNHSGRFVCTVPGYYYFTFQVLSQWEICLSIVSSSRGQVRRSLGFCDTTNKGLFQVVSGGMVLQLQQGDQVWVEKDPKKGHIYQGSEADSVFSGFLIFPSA
human C1q (human), sequence (P02746 28-253 limits assumed, chain 2 of 3, further chain): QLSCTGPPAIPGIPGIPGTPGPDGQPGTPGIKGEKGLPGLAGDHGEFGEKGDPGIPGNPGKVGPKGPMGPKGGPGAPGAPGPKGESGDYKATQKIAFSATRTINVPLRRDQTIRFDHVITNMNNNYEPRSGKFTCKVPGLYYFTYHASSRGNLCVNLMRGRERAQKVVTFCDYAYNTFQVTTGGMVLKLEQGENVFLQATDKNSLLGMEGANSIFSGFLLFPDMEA
human C1q (human), sequence (P02747 29-245 limits assumed, chain 3 of 3, further chain): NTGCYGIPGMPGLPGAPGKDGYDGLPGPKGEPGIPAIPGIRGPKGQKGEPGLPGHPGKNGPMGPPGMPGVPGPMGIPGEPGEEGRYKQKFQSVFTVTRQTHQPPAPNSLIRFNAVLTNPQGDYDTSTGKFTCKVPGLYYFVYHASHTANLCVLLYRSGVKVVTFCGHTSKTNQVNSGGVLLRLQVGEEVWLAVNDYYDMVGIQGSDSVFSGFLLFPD
FcγR1 (human), sequence (P12314 16-288): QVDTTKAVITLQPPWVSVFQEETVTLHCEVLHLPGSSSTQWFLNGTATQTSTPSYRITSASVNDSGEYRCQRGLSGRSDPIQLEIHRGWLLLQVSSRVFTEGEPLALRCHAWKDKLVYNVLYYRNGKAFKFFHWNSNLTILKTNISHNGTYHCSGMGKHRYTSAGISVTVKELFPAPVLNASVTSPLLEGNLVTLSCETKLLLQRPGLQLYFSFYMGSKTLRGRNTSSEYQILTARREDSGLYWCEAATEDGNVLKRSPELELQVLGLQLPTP

For orientation: EC50 means the midpoint of the concentration-response curve. A high value points to weaker potency. In the assay with human C1q (human) [1], LY3022859 (antibody) showed a CDC activity EC50 (nM), BxPC3 target cells, human complement greater than 200 nM; a CDC activity EC50 (nM), HEK293 target cells, human complement greater than 200 nM; a CDC activity EC50 (nM), MDA-MB-231 target cells, human complement greater than 200 nM; a CDC activity EC50 (nM), TGFRβII-HEK target cells, human complement greater than 200 nM. The concentration giving a half-maximal response (EC50) with human C1q (human) [2] came to 19 nM. The substance also had a concentration giving a half-maximal response (EC50) with FcγR1 (human) of 0.58 nM. Further, in the assay with FcγR2a(H) (human), the EC50 amounted to 48 nM. The concentration for a half-maximal effect (EC50) with FcγR3a (V) (human) stood at 5.7 nM.

Source of the values: patent US20180105597A1.
